The text below walks through data of patent publication US20090217400.

The data set concerns the target T1, wild type Cre recombinase, P06956.
T1 chain: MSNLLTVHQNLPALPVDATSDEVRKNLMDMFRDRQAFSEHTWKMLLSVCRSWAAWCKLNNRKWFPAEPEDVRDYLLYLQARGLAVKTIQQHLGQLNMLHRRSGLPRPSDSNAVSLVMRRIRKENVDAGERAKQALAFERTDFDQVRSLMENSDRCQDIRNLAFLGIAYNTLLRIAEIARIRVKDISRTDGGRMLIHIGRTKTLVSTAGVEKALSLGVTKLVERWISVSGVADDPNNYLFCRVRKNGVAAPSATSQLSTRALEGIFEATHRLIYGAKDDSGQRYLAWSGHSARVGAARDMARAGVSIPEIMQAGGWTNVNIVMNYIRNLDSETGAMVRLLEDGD

Positions count from the first letter of the chain named.

B1: Cre mutant CM2 [C2(+/-)#4] (protein)
chain: T1 chain with I174A, T258L, R259S, E262H, E266G
As to B1, the “catalytic efficiency of recombination of the asymmetric loxP-M7 substrate (wt Cre-CM2 mixture compared with CM1)” value is “both the wt Cre-CM2 mixture and CM1 demonstrated comparable catalytic efficiency”; the “recombination extent after 30 min (loxP-M7 substrate, wt Cre-CM2 mixture, 30 nM enzyme)” value is reported as “approximately 20% after 30 min”; the “recombination extent after 90 min (loxP-M7 substrate, wt Cre-CM2 mixture, 30 nM enzyme)” value is recorded as 25-30% after 90 min; the “recombination rate (observed rate constant, loxP-M7 substrate, wt Cre-CM2 mixture, 30 nM enzyme)” value was 0.034 and 0.048 min-1, respectively. Also, the “substrate recombination in 1 h (in vitro recombination of loxP-M7 DNA substrate, equal wt Cre-CM2 mixture at 30 nM and 60 nM total enzyme)” value is reported as “approximately 35% substrate recombination in 1 h”.
